Broadly, the stoichiometry N is a count of units in the complex or per binding partner.

We go through 1 molecule from PMC7083075 (Cell, 2019).

The target in the assay is T1, hKCNQ1EM (human KCNQ1, residues 76-620) (human, UniProt P51787-1 76-620).
T1 sequence (looked up): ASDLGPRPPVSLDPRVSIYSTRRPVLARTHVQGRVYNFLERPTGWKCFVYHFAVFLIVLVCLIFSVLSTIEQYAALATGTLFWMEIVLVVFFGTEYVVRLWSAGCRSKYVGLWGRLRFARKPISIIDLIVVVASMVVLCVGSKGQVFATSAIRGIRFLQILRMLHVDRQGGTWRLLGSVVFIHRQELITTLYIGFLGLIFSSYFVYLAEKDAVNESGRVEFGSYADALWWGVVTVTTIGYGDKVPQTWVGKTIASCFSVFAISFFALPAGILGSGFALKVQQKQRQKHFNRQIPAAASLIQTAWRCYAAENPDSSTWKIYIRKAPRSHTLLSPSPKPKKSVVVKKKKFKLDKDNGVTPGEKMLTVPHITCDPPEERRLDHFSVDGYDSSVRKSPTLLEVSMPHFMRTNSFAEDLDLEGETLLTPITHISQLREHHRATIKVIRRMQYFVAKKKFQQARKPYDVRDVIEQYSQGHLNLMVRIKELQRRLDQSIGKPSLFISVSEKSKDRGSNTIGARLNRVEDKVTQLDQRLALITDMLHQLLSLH
In words: cryo-EM structure.

B1: KCNE3 (full-length human, N-terminal mCherry2) (natural protein, UniProt Q9Y6H6 1-103, looked up)
chain: METTNGTETWYESLHAVLKALNATLHSNLLCRPGPGLGPDNQTEERRASLPGRDDNSYMYILFVMFLFAVTVGSLILGYTRSRKVDKRSDPYHVYIKNRVSMI
In the case of B1, the “stoichiometry N” value is 4 KCNE3 per KCNQ1 tetramer.
